Assay results published in the RNAGym collection of RNA variant scans (doi:10.1073/pnas.2313332121).
Fewer inactive variants are shown than the library holds.

B1: TPR 5TU (parent)
chain: GGAUCUUCUCGAUCUAACAAAAAAGACAAAUCUGCCACAAAGCUUGAGAGCAUCUUCGGAUGCAGAGGCGGCAGCCUUCGGUGGCGCGAUAGCGCCAACGUUCUCAACUAUGACACGCAAAACGCGUGCUCCGUUGAAUGGAGUUUAUCAUG

Variants of: B1
Assay: polymerase ribozyme fitness, log enrichment relative to wild type (log ratio); higher = more active; in vitro selection for triplet polymerase activity
In short: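 In triplicate, a single round of in vitro selection was run on each mutant library, PCR-built and transcribed, covering one subunit of a heterodimeric triplet polymerase ribozyme. Frozen incubation at −7 °C followed annealing with a biotinylated primer, partner subunit and triplets, and extended constructs were then gel-excised, streptavidin-captured and taken through RT-PCR. Fitness is the logarithm of genotype enrichment over wild-type enrichment, from inverse-variance-weighted replicate averages of Illumina-sequenced inputs and outputs. […] only genotypes with ≥10 input reads and ≥1 read per output were kept.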

Variant | polymerase ribozyme fitness (log ratio)
U53A A89U | -0.481
U53A G140C | -3.65
C54G C96G G126A | -2.33
U53A U55G | -3.97
C54A C63G C69G C76G U82C C131G | ≤ -4.2
U53C G94C A98C U148G | ≤ -4.2
U53A C54A G58A C85U | -0.519
C54A A91U G100A G141C | ≤ -4.2
U53A C54A G65U G86U A91U | ≤ -4.2
U53G A119C A122C G141U | -0.69
U53A C99U C116U | -1.7
C54A C76G A89U G92U U130G C149A U151A | ≤ -4.2
U53G A110G G117A U148A | ≤ -4.2
U53A C54A A147C | -2.75
C54G C72U U82A U90G G141C | ≤ -4.2
C54G C85U C96G G112C U130A A142G C149A | ≤ -4.2
U53A C103G | -3.95
U53A A106U | -1.9
U53A U144C U145G | -1.92
C54A G65C C93G | ≤ -4.2
C54G G58C A122G G124U | -2.2
U53C U77C | ≤ -4.2
C54A A91G | -3.97
C54A A91U | ≤ -4.2

Variant | polymerase ribozyme fitness (log ratio)
C54A C57G | -3
C54A C79A C87U U144C A150G U151A | ≤ -4.2
C54A C57U G59U | -0.27
U53A G59C C76G C85U A89C A97C A107U G117U G133A U139G | ≤ -4.2
U53C C57G C125U G143A | -3.67
U53A G58C C96U U135G | -3.98
C54A U56A C93U A120G G126U | -2.38
C54A U61G | -1.82
C54A G94C A138C | ≤ -4.2
C54A U61A C69U C125A | ≤ -4.2
U53G U55A C79U G86A G88A C103U U148C | ≤ -4.2
U53A C85U | -1.4
C54A C96G | -1.71
U53A C95U | -0.368
C54A G94U G140A | ≤ -4.2
U53A C93U G140C | ≤ -4.2
U53A G117A | -0.303
U53A G62C C93A C118G G133A | ≤ -4.2
U53C G83C C116G | -3.05
C54A G141A | -0.156
C54A A66G A91G C95G G141A G143U U146C | ≤ -4.2
C54A G59C G84A | -0.321
U53G C96A U104G | -3.96
U53A G92U C103A | -2.78

Variant | polymerase ribozyme fitness (log ratio)
U53A A66C | -4.19
U53A A66U | ≤ -4.2
U53A A60U C63U C75U U77G C93G A122G C149G U151A | ≤ -4.2
U53A A66C A89G G94C C99G | -3.94
U53A U55A G62C | -2.35
C54G C87U A106U A137U G140U A142C | ≤ -4.2
C54G C85U C99G | -3.45
C54A G58C | -1.45
U53G G58C U82G A138C U151A | ≤ -4.2
U53C A64G U90C G117C | ≤ -4.2
C54G C57A G74A A91C C95U C132A | ≤ -4.2
U53G C87G G133U | ≤ -4.2
C54A C87A C114A C116G | ≤ -4.2
U53A C118G | -2.5
C54A U55G G83A U102C C108G G126A | ≤ -4.2
C54G C95U U127G | ≤ -4.2
U53A G84C C99A U111A | ≤ -4.2
U53G C96U C114U A120C A147U | -3.11
C54A G67U | -4
U53A G141U | 0.504
U53A U130G A142C | -0.549
C54A G81C | -0.408
C54A A64G U111C G133U G140A G143A | ≤ -4.2
U53A C75G U109G U139C | ≤ -4.2

Variant | polymerase ribozyme fitness (log ratio)
U53A C54G | -2.2
U53A C54U | -0.319
U53A U148G | -4.01
U53A C54A A91U | ≤ -4.2
C54A U78G U101G A107G C118A U130A | ≤ -4.2
C54A G80A C103G A110U A120U C132G | ≤ -4.2
C54A C105U A121G | -0.876
U53C G74A C76G C96U A110U | ≤ -4.2
U53C U56A A89U C93U G141U | -1.74
C54A G92U U135G | -4.08
U53A U55A C57A C85G A122G | -2.51
C54A C85A C105A | ≤ -4.2
C54A G84A A142C | -4.19
U53G C54U C96U A98G G133C G141U | -4.03
C54A U148C | -3.69
C54A U56G A110U U145G | ≤ -4.2
U53A C96A C129G | -3.82
U53A C123U | -0.0861
U53A G58C A73U C95A | ≤ -4.2
U53G C96G U144C | -3.23
U53A C57G | -2.09
U53A A150C | -3.56
U53A G80C G143U | ≤ -4.2
U53A G86A | -2.07

Variant | polymerase ribozyme fitness (log ratio)
C54A C69U | -4.12
U53A G58U C95A U144A C149A | ≤ -4.2
C54A C99A G141U | -2.47
C54A A150G | -3.37
U53A G59C C85U U135A | -0.238
C54G C75U C95U A147C | -3.31
C54G A142U | -1.98
U53A U55A C79U A98U | ≤ -4.2
A52U U56A C79G C105A | ≤ -4.2
C54A U127C | -2.28
U53A U55G G65C C85G C87U C103U C131A | ≤ -4.2
C54A U56A G68U U82G G83C G133C | ≤ -4.2
U53A G70C C114A | ≤ -4.2
U53G A97U | -2.68
U53G A97C | -1.81
U53A G70A C99A G124C | ≤ -4.2
C54G C96U C123G | -1.53
U53A G58A | -0.0533
U53A G58C | -1.52
C54A G59U A91G U135A | -3.95
U53G A60G C87A | ≤ -4.2
U53A A110C | ≤ -4.2
C54A U104A C131U | -2.14
C54A U55G G58U G81C C85A | -2.41

Variant | polymerase ribozyme fitness (log ratio)
U53G G80C | -4.15
C54A C87U | -3.48
C54A C87A | -4.19
C54G C85A | -3.85
U53A C54U C57A G86A | -2.08
U53A C79A A150U | ≤ -4.2
U53A A73U | -2.21
U53A G88C | ≤ -4.2
U53A A98U | -1.39
U53A A107U | -2.93
U53A C93A C99U G141U | ≤ -4.2
U53G C118U | -1.68
U53A U56A G70U C93U G141C | ≤ -4.2
U53C G84A C95U | -0.536
U53A C75U C85U C123U C125A | -2.32
C54A A89U G92C A121U | -3
C54A U55A A106G G141A G143C C149G | ≤ -4.2
U53A C75U | -1.34
C54A C105U | -0.396
U53A U56A G152A | -4
U53G G84U C96G | ≤ -4.2
C54A C125U | -3.73
U53A A60U U61A C69G C96U | -3.74
C54A C93U | -2.59

Variant | polymerase ribozyme fitness (log ratio)
C54G C116U | -1.08
U53G C57G G70C C79G A89U A91U C93U | ≤ -4.2
U53A C54U G74U C75U G86U G141A | ≤ -4.2
U53A C57A C69G A91C | ≤ -4.2
U53A U55A G83U C123A G128U A147U | ≤ -4.2
C54A U144G | -0.801
U53A A97G A121U C125A | -1.26
U53C C69U C75A C93U A115C | ≤ -4.2
U53A C96U C103U | -1.14
U53A U101G C125A | -0.788
U53A G94A C125A U139C A142C | ≤ -4.2
U53A G80C A106C C125U | ≤ -4.2
U53A C57U A97G | -1.24
U53G C54A C95U U104C A106U C118U C149G | ≤ -4.2
U53A C118G U144C | -1.81
U53A A66C A91U U104G G124A G141A | ≤ -4.2
A52U U82A C93A C131G | ≤ -4.2
C54A U55C C79A G86C C103G A147C | ≤ -4.2
U53C U78G U127C U148C | ≤ -4.2
U53A C79U A89G U134G | ≤ -4.2
C54A U55A U56A C96A G141C | -4.08
C54G C87U | -3.59
C54G C87A | ≤ -4.2
